In patent publication US20210017275A1 (Alector, published 2021):

T1: Human Siglec 5, Fc chimera (R&D Systems) (human, UniProt O15389 17-434, limits assumed)
T1 construct: Bought or recombinant Fc fusion; also called recombinant Siglec-5-Fc; not shown: Fc part
T1 sequence: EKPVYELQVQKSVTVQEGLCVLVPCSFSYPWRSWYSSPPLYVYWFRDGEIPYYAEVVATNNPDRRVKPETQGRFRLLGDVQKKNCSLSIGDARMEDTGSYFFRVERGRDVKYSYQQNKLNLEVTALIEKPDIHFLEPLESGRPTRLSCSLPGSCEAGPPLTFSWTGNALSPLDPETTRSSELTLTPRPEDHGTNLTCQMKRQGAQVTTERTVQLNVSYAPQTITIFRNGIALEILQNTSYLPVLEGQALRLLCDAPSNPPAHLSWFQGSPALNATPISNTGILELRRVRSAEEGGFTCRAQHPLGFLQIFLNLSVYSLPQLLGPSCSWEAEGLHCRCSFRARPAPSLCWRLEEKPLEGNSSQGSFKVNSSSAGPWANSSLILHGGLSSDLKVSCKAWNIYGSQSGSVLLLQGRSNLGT

T2: human Siglec-5 expressed on human primary cells (human, UniProt O15389 17-551)
T2 construct: Endogenous receptor on human primary monocytes, dendritic cells, macrophages and neutrophils; also called CD170
T2 sequence: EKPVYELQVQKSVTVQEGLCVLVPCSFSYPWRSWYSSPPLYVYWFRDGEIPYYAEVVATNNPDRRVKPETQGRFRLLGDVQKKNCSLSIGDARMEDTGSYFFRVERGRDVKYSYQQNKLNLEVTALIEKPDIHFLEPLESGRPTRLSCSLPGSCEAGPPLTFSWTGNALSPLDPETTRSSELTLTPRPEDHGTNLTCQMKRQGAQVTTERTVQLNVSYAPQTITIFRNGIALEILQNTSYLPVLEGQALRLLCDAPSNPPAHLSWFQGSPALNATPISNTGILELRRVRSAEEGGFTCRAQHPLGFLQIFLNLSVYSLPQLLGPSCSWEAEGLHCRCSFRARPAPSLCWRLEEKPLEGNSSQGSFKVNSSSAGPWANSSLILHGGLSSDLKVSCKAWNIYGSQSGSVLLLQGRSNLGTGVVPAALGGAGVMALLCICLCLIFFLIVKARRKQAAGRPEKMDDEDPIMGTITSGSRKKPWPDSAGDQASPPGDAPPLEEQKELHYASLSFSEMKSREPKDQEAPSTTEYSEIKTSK

T3: Histidine-tagged human Siglec-5 (NovoProtein) (human, UniProt O15389 17-434, limits assumed)
T3 construct: Bought protein; also called Siglec-5-his tagged protein; not shown: histidine tag
T3 sequence: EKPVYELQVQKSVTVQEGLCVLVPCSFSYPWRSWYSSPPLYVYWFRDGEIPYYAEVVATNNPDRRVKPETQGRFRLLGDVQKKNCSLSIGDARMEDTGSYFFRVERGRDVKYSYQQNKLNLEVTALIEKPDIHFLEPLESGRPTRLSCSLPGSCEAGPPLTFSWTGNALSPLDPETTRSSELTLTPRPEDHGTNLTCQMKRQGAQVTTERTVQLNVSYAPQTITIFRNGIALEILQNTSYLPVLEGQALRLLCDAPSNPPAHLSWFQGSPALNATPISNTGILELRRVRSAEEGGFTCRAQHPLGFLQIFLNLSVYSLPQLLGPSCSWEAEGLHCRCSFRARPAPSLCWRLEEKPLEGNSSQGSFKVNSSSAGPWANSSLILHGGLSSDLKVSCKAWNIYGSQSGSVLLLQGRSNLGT


Legend:
[1] = biological target: T1, Human Siglec 5, Fc chimera (R&D Systems); assay: RBC adhesion to plate-bound Siglec-5-Fc, 1.0 ug/ml mAb, percent of binding without antibody
Description: (§1) Siglec-5 antibodies (0.3 μg/ml or 1.0 μg/ml) were bound for one hour at RT with gentle rocking. After removal of unbound antibody, red blood cells were added to each well at a concentration of 3.0 ×10⁶ cells per ml and incubated at RT for one hour. Unbound RBCs were then carefully washed off 3X with PBS, and water was added to each well for hypotonic lysis of bound RBCs. The plate was transferred to -80° C. for 10 minutes, followed by 37° C. for 15 minutes. Bound RBCs were detected by peroxidase activity, followed by 2N sulfuric acid to stop the reaction.

[2] = biological target: T2, human Siglec-5 expressed on human …; assay: flow cytometry, human primary macrophages, 10 ug/ml mAb
Description: (§2) Initial characterization of Siglec-5 antibodies involved determining their ability to bind Siglec-5 expressed on human primary monocytes, human primary macrophages, human primary dendritic cells, and human primary neutrophils. Cells were harvested, plated at 10⁶1m1 in a 96 well plate, and incubated in 100 μl PBS containing 2% FBS, 2 mM EDTA and 10 μg/ml Mab and Fc blocking reagent for 1 hour in ice. […] Cells were washed twice in cold PBS and analyze by flow cytometry on a BD FACS Canto. Data analysis and calculation of MFI values was performed with FlowJo (TreeStar) software version 10.0.7.
(§3) Binding is compared to an isotype control.

[3] = biological target: T2, human Siglec-5 expressed on human …; assay: flow cytometry, human primary dendritic cells, 10 ug/ml mAb
Description: as §2, §3

[4] = biological target: T2, human Siglec-5 expressed on human …; assay: flow cytometry, human primary neutrophils, 10 ug/ml mAb
Description: as §2, §3

[5] = biological target: T3, Histidine-tagged human Siglec-5 …; assay: SPR (BiaCore T200, 25 C), mAb captured on anti-mouse IgG, 15 nM His-tagged Siglec-5, single-concentration 1:1 fit
Description: The binding affinity of each anti-Siglec-5 antibody was determined by measuring their KD by surface plasmon resonance (SPR) assays. SPR data was collected at a rate of 10 Hz at 25° C. on a BiaCore T200 instrument. Data analysis was performed using BiaCore T200 Evaluation
Histidine-tagged human Siglec-5 (NovoProtein) was then flowed over the captured anti-Siglec-5 surface (120 s contact time, 30 4/min flow rate, 300 s dissociation time). […] Duplicate single-concentration trials were performed and bracketed by a blank (0 nM antigen) sample. The chip surface was regenerated in between cycles using 10 mM glycine-HCl, pH 1.7 (60 s contact time, 30 4/min flow rate, 60 s stabilization time). The resulting SPR signal was obtained as the difference in response from measurements performed on a blank flow cell.
Affinity constants (KD) were calculated from the ratio kd/kₐ.

[6] = biological target: T1, Human Siglec 5, Fc chimera (R&D Systems); assay: RBC adhesion to plate-bound Siglec-5-Fc, 0.3 ug/ml mAb, percent of binding without antibody
Description: as §1

[7] = biological target: T2, human Siglec-5 expressed on human …; assay: flow cytometry, human primary monocytes, 10 ug/ml mAb
Description: as §2, §3

Binder | Percent RBC Binding to Siglec-5 [1] | % Positive [2] | MFI [2] | % Positive [3] | MFI [3] | % Positive [4] | MFI [4] | Kd [5] | Percent RBC Binding to Siglec-5 [6] | % Positive [7] | MFI [7]
anti-Siglec-5 monoclonal antibody 7A5 (antibody, IgG1, V domains shown) VH: EIQLQQSGPELVKPGASVKVSCKASGYSFTDYNMYWVKQSHGKSLEWIGYIDPYNGGTTYNQKFKGKATLTVDKSSSTAFMHLNSLTSEDSAVFYCAFYYGYYGVPYWGQGTLVTVSA VL: DIVMIQSQKFMSTSVGDRVSVTCKASQNVDTNVAWYQQKPGQSPKALIYSASYRYSGVPDRFTGSGSGTDFTLTISNVQSEDLAEYFCQQYNSFPLTFGSGTKLEIK | 6.86% | 84.1% | 445 | 90.3% | 467 | 94.6% | 261 | 0.112 nM | 47.4% | 93.5% | 391
anti-Siglec-5 monoclonal antibody 5H2 (antibody, IgG1, V domains shown) VH: EVQLQQSGPELVKPGASVKVSCKASGYSFTDYNMYWVKQSHGKSLEWIGYIDPYNGGTSYNQKFKGKATLTVDKSSSTAFMLLNSLTSEDSAVYYCALYYDYDGIPYWGQGTLVTVSA VL: DIVMTQSQKFMSTSVGDRVSVTCKASQNVGTNVAWYRQKPGQSPKALIYSASYRYNGVPDRFTGSGSGTDFTLTISNVQSEDLAEYFCQQYNSYPYTFGGGTKLEIK | 9.94% | 93.5% | 537 | 94% | 515 | 98.1% | 329 | 0.184 nM | 36.5% | 96.1% | 404
anti-Siglec-5 monoclonal antibody 8A1 (antibody, IgG1, V domains shown) VH: EIQLQQSGPELVKPGASVKVSCKASDYAFTSYNIYWVKQSHGKSLEWIGYIDPYNGGTSYNQTFKGKATLTVDKSSSTAYMHLNSLTSEDSAVYYCAMKVGYEAMDYWGQGTSVTVSS VL: DIVMTQSQKFMSTSVGDRVSVTCKASQNVGTYVAWYQQKPGQSPKALIYSASYRYSGVPDRFTGSGSGTDFTLNISNVQSEDLAEYFCQQFNSYPYTFGGGTKLEIK | 8% | 83% | 457 | 85.7% | 349 | 89% | 219 | 0.229 nM | 19% | 98% | 398
anti-Siglec-5 monoclonal antibody 11H3 (antibody, IgG1, V domains shown) VH: QVQLQQSGPELVKPGASVKVSCKASDYAFTSYNIYWVKQSHGKSLEWIGYIDPYNGGTSYNQTFKGKATLTVDKSSSTAYMHLNSLTSEDSAVYYCAMKVGYEAMDYWGQGTSVTVSS VL: DIQMTQSQKFMSTSVGDRVSVTCKASQNVGTNVAWYQQKPGQSPKALIYSASYRYSGVPDRFTGSGSGTDFTLNISNVQSEDLAEYFCQQFNSYPYTFGGGTKLEIK | 6.17% | 84.1% | 444 | 86% | 377 | 97.8% | 367 | 0.569 nM | 38.5% | 95.5% | 376
anti-Siglec-5 monoclonal antibody 11C6 (antibody, IgG1, V domains shown, also called 1106) VH: QVQLQQSGAELVKPGASVKLSCKASGYTFTEYTIHWVKQRSGQGLEWIGWFYPGSGSIKYNEKFKDKATLTAVKSSSTVYMEFSRLTSEDSAVYFCARQDYDGLGFAYWGQGTLVTVSA VL: DVLMTQTPLSLPVSLGDQASISCRSSQTIVHSNGNTYLEWYLQKPGQSPKLLIYKVSNRFSGVPDRFSGSGSGTDFTLKISRVEAEDLGVYYCFQGSHVPWTFGGGTKLEIK | 4.76% | 80.6% | 451 | 86.9% | 402 | 99.7% | 500 | 0.166 nM | 25.4% | 95.7% | 386

These reach a lower Kd [5]. Values come first.

Percent RBC Binding to Siglec-5 [1] | % Positive [2] | MFI [2] | % Positive [3] | MFI [3] | % Positive [4] | MFI [4] | Kd [5] | Percent RBC Binding to Siglec-5 [6] | % Positive [7] | MFI [7] | Binder
5.21% | 94.4% | 581 | 93.6% | 607 | 94.4% | 253 | 0.101 nM | 27.5% | 98.2% | 421 | anti-Siglec-5 monoclonal antibody 10B6 (antibody, IgG1, V domains shown) VH: EIQLQQSGPELVKPGASVKVSCKASGYSFTDYNMYWVKQSHGKSLECFGYIDPYNGGPYYNQKFKGKATLTVDKSSSTAFMHLNSLTSEDSAVYYCAFYYGYYGVPYWGQGTLVTVSA VL: DIVMTQSQKFMSTSVGDRVSVTCKASHNVGTSVAWYQQKPGQSPKSLIYSASYRYSGVPDRFTGSGSGTDFTLTISNVQSEDLAEYFCQQYNSYPLTFGSGTKLEIK
6.22% | 96.2% | 562 | 95.6% | 589 | 98.9% | 371 | 0.104 nM | 48.7% | 95.3% | 405 | anti-Siglec-5 monoclonal antibody 10F9 (antibody, IgG1, V domains shown) VH: EIQLQQSGPELVKPGASVKVSCKASGYSFTGYNMYWVKQSHGKSFEWIGYIDPYTGGTSYNQRFKGKATLTVDKSSSTAFMHLNSLTSEDSAIYYCALFYDYDGFPYWGQGTLVTVSA VL: DIVMTQSQKFMSTSVGDRVSVTCKASQNVDTNVAWYQQKPGQSPKALIYSASYRYSGVPDRFTGSGSGTDFTLTISNVQSEDLAEYFCQQYNSYPYTFGGGTKLEIK
6.73% | 91.8% | 569 | 90.7% | 459 | 87.4% | 207 | 0.081 nM | 31.8% | 97.3% | 368 | anti-Siglec-5 monoclonal antibody 2G5 (antibody, IgG1, V domains shown) VH: EIQLQQSGPELVKPGASVKVSCKASGYSFTDYNMYWVKQSHGKSLEWIGYIDPYNGNTTYNQRFKGKATLTVDKSSSTAFMHLNSLTSEDAAVYYCATFYGFDGFAYWGQGSLVAVSA VL: QAVVTQESALTTSPGETVTLTCRSSTGAVTTSNYANWVQEKPDHLFTGLIGTTNNRAPGVPARFSGSLIGDKAALTITGAQTEDEAIYFCALWYSNHLVFGGGTKLTVLG
5.79% | 94% | 560 | 96.1% | 660 | 99.2% | 411 | 0.069 nM | 29.2% | 97.6% | 382 | anti-Siglec-5 monoclonal antibody 9B1 (antibody, IgG1, V domains shown) VH: QVQLQQSGAELVKPGASVKLSCKASGYTFTEYTIHWVKQRSGQGLEWIGWFYPGSGSIKYNEKFKDKATLTADKSSSTVYMELSRLTSEDSAVYFCARQEEGGIGFDYWGQGTTLTVSS VL: DVLMTQTPLSLLVSLGDQASISCRSSQSIVHSNGNTYLEWYLQKPGQSPKLLIYKVSIRFSGVPDRFSGSGSGTDFTLKISRVEAEDLGVYYCFQGSHVPWTFGGGTKLEIK
5.36% | 92% | 490 | 94.9% | 512 | 96% | 320 | 0.043 nM | 24.2% | 94.8% | 377 | anti-Siglec-5 monoclonal antibody 8C3 (antibody, IgG1, V domains shown) VH: QVQLQQSGGGLVKPGTSVKLSCKASGYIFTEYIIHWVKQRSGQGLEWIGWFYPGIISIKYNEKFKDKATLTADKSSSTVYMELSRLTSEDSAVYFCAGHEGYDGAMDYWGQGTSVTVSS VL: DVLMTQTPLSLPVSLGDQASISCRCSQSIVHSNGNTYLEWYLQKPGQSPKLLIYRVSNRFSGVPDRFSGSGSGTDFTLKISRVEAEDLGVYYCFQGSHVPWTFGGGTKLEIK
